Assay results as given in paper PMC2120156 (The Journal of Cell Biology, 1994).

Biological target: filamentous actin (F-actin) from rabbit skeletal muscle (rabbit, UniProt P68135 1-377)
Assay: co-sedimentation

Binder | stoichiometry N
gizzard vinculin (intact, 116 kD) (natural protein) MPVFHTRTIESILEPVAQQISHLVIMHEEGEVDGKAIPDLTAPVSAVQAAVSNLVRVGKETVQTTEDQILKRDMPPAFIKVENACTKLVRAAQMLQADPYSVPARDYLIDGSRGILSGTSDLLLTFDEAEVRKIIRVCKGILEYLTVAEVVETMEDLVTYTKNLGPGMTKMAKMIDERQQELTHQEHRVMLVNSMNTVKELLPVLISAMKIFVTTKNTKSQGIEEALKNRNFTVEKMSAEINEIIRVLQLTSWDEDAWASKDTEAMKRALALIDSKMNQAKGWLRDPNAPPGDAGEQAIRQILDEAGKAGELCAGKERREILGTCKTLGQMTDQLADLRARGQGATPMAMQKAQQVSQGLDLLTAKVENAARKLEAMTNSKQAIAKKIDAAQNWLADPNGGSEGEEHIRGIMSEARKVAELCEEPKERDDILRSLGEISALTAKLSDLRRHGKGDSPEARALAKQIATSLQNLQSKTNRAVANTRPVKAAVHLEGKIEQAQRWIDNPTVDDRGVGQAAIRGLVAEGRRLANVMMGPYRQDLLAKCDRVDQLAAQLADLAARGEGESPQARAIAAQLQDSLKDLKARMQEAMTQEVSDVFSDTTTPIKLLAVAATAPSDTPNREEVFEERAANFENHAARLGATAEKAAAVGTANKTTVEGIQATVKSARELTPQVVSAARILLRNPGNQAAYEHFETMKNQWIDNVEKMTGLVDEAIDTKSLLDASEEAIKKDLDKCKVAMANMQPQMLVAGATSIARRANRILLVAKREVENSEDPKFREAVKAASDELSKTISPMVMDAKAVAGNISDPGLQKSFLDSGYRILGAVAKVREAFQPQEPDFPPPPPDLEHLHLTDELAPPKPPLPEGEVPPPRPPPPEEKDEEFPEQKAGEAINQPMMMAARQLHDEARKWSSKGNDIIAAAKRMALLMAEMSRLVRGGSGNKRALIQCAKDIAKASDEVTRLAKEVAKQCTDKRIRTNLLQVCERIPTISTQLKILSTVKATMLGRTNISDEESEQATEMLVHNAQNLMQSVKETVREAEAASIKIRTDAGFTLRWVRKTPWYQ | 0.5 mol vinculin per mol actin
MBPVinc8 (maltose binding protein fused to vinculin tail residues 809-1063) (domain or fragment) SDPGLQKSFLDSGYRILGAVAKVREAFQPQEPDFPPPPPDLEHLHLTDELAPPKPPLPEGEVPPPRPPPPEEKDEEFPEQKAGEAINQPMMMAARQLHDEARKWSSKGNDIIAAAKRMALLMAEMSRLVRGGSGNKRALIQCAKDIAKASDEVTRLAKEVAKQCTDKRIRTNLLQVCERIPTISTQLKILSTVKATMLGRTNISDEESEQATEMLVHNAQNLMQSVKETVREAEAASIKIRTDAGFTLRWVRKTP | 1.18 mol MBPVinc8 per mol actin
